T1: Ephrin-B2 (S27-D167) (UniProt P52799 27-167)
T1 construct: also called ephrin-B2 receptor; not shown: Fc, C-terminal, cleaved
T1 sequence (looked up): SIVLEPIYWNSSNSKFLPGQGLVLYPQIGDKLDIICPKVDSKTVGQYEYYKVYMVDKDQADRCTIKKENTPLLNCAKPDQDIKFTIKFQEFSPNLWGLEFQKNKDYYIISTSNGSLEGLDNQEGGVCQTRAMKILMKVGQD

B1: HeV-G globular head domain (174–602) (domain or fragment)
chain: ISQGVSDLVGLPNQICLQKTTSTILKPRLISYTLPINTREGVCITDPLLAVDNGFFAYSHLEKIGSCTRGIAKQRIIGVGEVLDRGDKVPSMFMTNVWTPPNPSTIHHCSSTYHEDFYYTLCAVSHVGDPILNSTSWTESLSLIRLAVRPKSDSGDYNQKYIAITKVERGKYDKVMPYGPSGIKQGDTLYFPAVGFLPRTEFQYNDSNCPIIHCKYSKAENCRLSMGVNSKSHYILRSGLLKYNLSLGGDIILQFIEIADNRLTIGSPSKIYNSLGQPVFYQASYSWDTMIKLGDVDTVDPLRVQWRNNSVISRPGQSQCPRFNVCPEVCWEGTYNDAFLIDRLNWVSAGVYLNSNQTAENPVFAVFKDNEILYQVPLAEDDTNAQKTITDCFLLENVIWCISLVEIYDTGDSVIRPKLFAVKIPAQCS

Tests used:
[1] = target: HeV-G globular head domain (174–602) (Hendra virus) (UniProt O89343); experiment: crystal structure
Ephrin-B2 (S27-D167) = target: T1, Ephrin-B2 (S27-D167); experiment: crystal structure; settings: both partners purified

Row | Molecule | stoichiometry N [1] | stoichiometry N (Ephrin-B2 (S27-D167))
1 | HeV-G globular head domain (174–602) (from UniProt O89343 174-602) (domain or fragment) | 2 | 
2 | B1 |  | 1

— PMC3489827 (PLoS ONE, 2012)
